Test results published in the Human Domainome abundance scans (Beltran et al. 2025).

B1: Far upstream element-binding protein 3, residues 75 to 150; numbered along this chain, Q96I24 (parent)
chain: RTVITEEFKVPDKMVGFIIGRGGEQISRIQAESGCKIQIASESSGIPERPCVLTGTPESIEQAKRLLGQIVDRCRN

Variants of: B1
Assay: abundance fitness (aPCA) (normalised: wild type 0, dead -1); higher = more abundant; growth selection in yeast, the domain comes from the species named
Details: Homo sapiens

Abundance fitness of substitutions, site by site:
S59: G -0.065, C -0.146, A -0.045, M -0.152, P -0.866, H -0.221, L -0.797, N -0.013, W -0.999, Q -0.014, F -1.1, Y -0.675, V -0.284, T -0.119, E -0.04, K -0.161, I -0.621, R -0.141, D -0.1
L66: R -0.061, A -0.036, Q -0.072, M -0.038, K -0.066, H -0.148, F -0.16, S -0.064, D -0.123, N -0.221, G -0.134, W -0.17, V -0.115, I -0.056, C -0.114, E -0.079, P -0.899, Y -0.078
E58: M -0.128, Q -0.066, K 0.045, I -0.256, T -0.003, W -0.161, S -0.05, N -0.091, G -0.047, A -0.025, R -0.086, H -0.226, L -0.17, V -0.107, P -0.108, F -0.124, D -0.054
P57: V -0.06, Y -0.133, T 0.006, W -0.073
E61: I -0.105, L -0.082, Q -0.018, P -0.553, G -0.017, T -0.009, A -0.037, C -0.078, K -0.026, D 0.027, R -0.046, W -0.111, V -0.046, H -0.031, F -0.035, S -0.026, N -0.064
I60: A -0.542, V -0.025, W -0.995, C -0.088, P -1.1, L -0.119, Q -0.806, M -0.343, E -0.877, Y -1, D -0.972, T -0.223, R -0.21, H -0.631, K -0.767, S -0.836, F -0.754, G -0.988, N -0.182
L67: E -0.757, D -0.884, F -0.367, A -0.845, C -0.397
Q62: C -0.011, F -0.043, H -0.011, S -0.023, Y -0.096, V -0.008, L -0.044, A -0.01, G -0.055, N -0.041, W -0.102, R -0.043, I -0.043, D -0.005, K -0.019, M -0.023
K64: I -0.275, S -0.416, F -0.801, H -0.421, Y -0.505, A -0.429, L -0.491, M -0.336, E -0.388, T -0.285, P -1.14, R -0.095, C -0.453, G -0.658, W -0.578, Q -0.197, D -0.89, V -0.35
A63: K -0.968, H -0.911, E -0.831, T -0.412, N -1.25, M -0.292, G -0.065, W -1.25, F -0.427, P -0.986, Y -1.59, C -0.03, I -0.457, S -0.401, L -0.746, Q -0.907, R -1.22, V -0.31
R65: E 0.013, C -0.092, K 0.012, G -0.053, I 0.057, T -0.014, V -0.006, D -0.031, Y -0.046, S -0.026, W -0.069, L -0.017, N 0.013, Q -0.004, A -0.031, F 0.017
